# Molecular target: ZIKV E protein expressed from pcDNA3.1+_19CprME-Zika (with prM)
# Test: co-immunoprecipitation (GFP trap beads), western blot band quantitation
# Conditions: HEK293T/17 cells, 48 h post transfection; parent: est. 1.0; read off a plot
# Sequence of EGFP-full length GRP78 (wild type), P11021 V429Q (P11021 19-654 V429Q): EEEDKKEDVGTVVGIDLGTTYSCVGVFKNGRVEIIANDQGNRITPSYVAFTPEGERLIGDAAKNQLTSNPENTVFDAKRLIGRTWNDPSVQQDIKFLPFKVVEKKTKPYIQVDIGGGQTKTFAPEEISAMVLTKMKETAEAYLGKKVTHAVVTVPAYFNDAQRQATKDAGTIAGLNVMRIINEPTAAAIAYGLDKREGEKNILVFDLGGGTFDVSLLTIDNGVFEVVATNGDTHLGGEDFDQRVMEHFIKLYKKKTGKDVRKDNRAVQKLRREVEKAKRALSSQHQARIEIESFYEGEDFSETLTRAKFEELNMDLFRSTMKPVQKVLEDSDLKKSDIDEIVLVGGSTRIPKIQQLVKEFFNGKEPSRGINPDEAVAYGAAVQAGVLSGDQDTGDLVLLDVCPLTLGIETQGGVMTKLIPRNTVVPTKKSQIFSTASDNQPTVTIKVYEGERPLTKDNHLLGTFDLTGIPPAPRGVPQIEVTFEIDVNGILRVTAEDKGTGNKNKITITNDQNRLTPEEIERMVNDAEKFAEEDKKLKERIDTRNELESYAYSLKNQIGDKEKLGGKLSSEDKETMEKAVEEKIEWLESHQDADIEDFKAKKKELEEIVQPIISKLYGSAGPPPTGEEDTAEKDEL
# Sequence of EGFP-full length GRP78 (wild type), P11021 K585A (P11021 19-654 K585A): as the sequence (P11021 19-654 V429Q) above, with Q411V, K567A counted along it
# Sequence of EGFP-full length GRP78 (wild type), P11021 R492E (P11021 19-654 R492E): as the sequence (P11021 19-654 V429Q) above, with Q411V, R474E counted along it
# Sequence of EGFP-full length GRP78 (wild type), P11021 K621A (P11021 19-654 K621A): as the sequence (P11021 19-654 V429Q) above, with Q411V, K603A counted along it
# Sequence of EGFP-full length GRP78 (wild type), P11021 R470E (P11021 19-654 R470E): as the sequence (P11021 19-654 V429Q) above, with Q411V, R452E counted along it
# Sequence of EGFP-full length GRP78 (wild type), P11021 T518A (P11021 19-654 T518A): as the sequence (P11021 19-654 V429Q) above, with Q411V, T500A counted along it
row,Substance,ratio to parent
1,EGFP-full length GRP78 (wild type) (from UniProt P11021) K621A,0.72
2,EGFP-full length GRP78 (wild type) (from UniProt P11021) K585A,1
3,EGFP-full length GRP78 (wild type) (from UniProt P11021) H477E,1.3
4,EGFP-full length GRP78 (wild type) (from UniProt P11021) T518A,0.42
5,EGFP-full length GRP78 (wild type) (from UniProt P11021) V429Q,1.1
6,EGFP-full length GRP78 (wild type) (from UniProt P11021) R492E,0.47

# Molecular target: ATF6 (activating transcription factor 6), endogenous (UniProt P18850)
# Sequence (P18850 whole entry): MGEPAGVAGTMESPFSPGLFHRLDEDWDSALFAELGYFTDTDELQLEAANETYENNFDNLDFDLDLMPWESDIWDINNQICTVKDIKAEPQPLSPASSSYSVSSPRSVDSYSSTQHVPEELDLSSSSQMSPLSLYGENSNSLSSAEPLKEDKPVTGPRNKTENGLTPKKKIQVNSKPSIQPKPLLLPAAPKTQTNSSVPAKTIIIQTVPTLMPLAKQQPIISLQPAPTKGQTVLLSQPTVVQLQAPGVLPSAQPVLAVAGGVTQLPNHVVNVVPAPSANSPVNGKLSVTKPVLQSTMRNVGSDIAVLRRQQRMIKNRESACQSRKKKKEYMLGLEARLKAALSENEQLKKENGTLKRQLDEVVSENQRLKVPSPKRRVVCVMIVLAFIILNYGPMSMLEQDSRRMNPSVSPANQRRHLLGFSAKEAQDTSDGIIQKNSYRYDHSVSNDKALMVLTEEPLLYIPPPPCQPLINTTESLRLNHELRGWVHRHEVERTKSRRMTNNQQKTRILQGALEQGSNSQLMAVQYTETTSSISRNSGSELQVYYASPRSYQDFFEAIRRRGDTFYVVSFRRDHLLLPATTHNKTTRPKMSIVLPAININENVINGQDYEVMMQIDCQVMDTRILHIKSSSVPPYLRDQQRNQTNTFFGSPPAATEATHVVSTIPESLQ
# Test: as above
# Conditions: HEK293T/17 cells, 48 h post transfection; parent: est. 1.0; read off a plot
row,Substance,ratio to parent
1,"EGFP-full length GRP78 (wild type), P11021 V429Q",0.98
2,"EGFP-full length GRP78 (wild type), P11021 K585A",0.82
3,"EGFP-full length GRP78 (wild type), P11021 R492E",0.28
4,"EGFP-full length GRP78 (wild type), P11021 R470E",0.95
5,"EGFP-full length GRP78 (wild type), P11021 T518A",0.4
6,"EGFP-full length GRP78 (wild type), P11021 K621A",0.82

# Reference: paper PMC11074156
